Measured values taken from US20240301049A1 (Ablynx, published 2024).

Columns and labels:
Experiment in all cases: cell-based or functional assay
human IL-6 = human IL-6 (human, UniProt P05231 30-212)
cyno IL-6 = target: T1, cyno IL-6 (cynomolgus monkey, UniProt P79341 28-212, limits assumed)
T1 sequence (looked up): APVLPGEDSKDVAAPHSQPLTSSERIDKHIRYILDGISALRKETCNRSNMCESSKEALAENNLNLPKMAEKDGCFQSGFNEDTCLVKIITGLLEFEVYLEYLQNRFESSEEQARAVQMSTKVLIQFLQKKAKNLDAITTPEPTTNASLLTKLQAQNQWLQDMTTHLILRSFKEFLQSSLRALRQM

human TNF-α = human TNF-α (human, UniProt P01375 77-233)
cyno TNF-α = cyno TNF-α (cynomolgus monkey, UniProt P79337 77-233)
Chain of cyno TNF-α (P79337 77-233 limits assumed): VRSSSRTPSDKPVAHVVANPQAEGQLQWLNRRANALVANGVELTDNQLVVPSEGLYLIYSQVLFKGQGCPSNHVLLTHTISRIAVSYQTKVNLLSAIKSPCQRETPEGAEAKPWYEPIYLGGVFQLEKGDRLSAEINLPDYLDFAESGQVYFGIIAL

Chain of human TNF-α (P01375 77-233 limits assumed): as the sequence (P79337 77-233 limits assumed) above, with V37L, T44R, N72T, L138R counted along it

B1: F027201062 (bispecific antibody)
chain: DVQLVESGGGVVQPGGSLRLSCAASGRTFSNYAMAWFRQAPGKEREFVAVISYAGGRTYYADSVKGRFTISRDNAKNTVYLQMNSLRPEDTALYYCAAVDSPLIATHPRGYDYWGQGTLVTVSSGGGGSGGGSEVQLVESGGGVVQPGGSLRLSCAASGFTFRSFGMSWVRQAPGKGPEWVSSISGSGSDTLYADSVKGRFTISRDNSKNTLYLQMNSLRPEDTALYYCTIGGSLSRSSQGTLVTVSSGGGGSGGGSEVQLVESGGGVVQPGGSLRLSCAASGFTLAYYAIGWFRQAPGKEREGVSCISGSVGTTYYADSVKGRFTISRDNAKNTVYLQMNSLRPEDTALYYCVRSSWFDCGVQGRDLGNEYDYRGQGTLVTVSSGGGGSGGGSEVQLVESGGGVVQPGGSLRLSCTASGFTFSTADMGWFRQAPGKGREFVARISGIDGTTYYDEPVKGRFTISRDNSKNTVYLQMNSLRPEDTALYYCRSPRYADQWSAYDYWGQGTLVKVSSA
notes: anti-IL-6 (17C04, 6B12), anti-HSA (ALB23002), anti-TNF-α (6C11), C-terminal alanine; produced in Pichia pastoris; also called ISVD construct F027201062; Nanobody F027201062
IC50 hIL-6 TF1 proliferation assay (human IL-6): 0.134 nM
Ratio IC50 cyno IL-6/hIL-6 (cyno IL-6): 0.5 ratio
IC50 hTNF-α Nfkb assay (human TNF-α): 0.0978 nM
Ratio IC50 cyno TNFα/hTNFα (cyno TNF-α): 2 ratio
